Results on 2 substances are retold here after paper PMC10550236.

The stoichiometry N is the number of molecules, sites or subunits per partner or assembly.

Assay [1] deals with CC^DD, CC fragment with glutamic acid replaced with aspartic acid at two core hydrophilic positions (Apis mellifera). The assay is described as follows: SDS-PAGE under oligomer-forming (very low denaturation) conditions with Western blot; myc-tagged proteins translated in reticulocyte lysate; native loading buffer with no SDS; 0.01% SDS in the gel, 0.15% SDS as running buffer; anti-myc detection; complexes and monomers quantified by chemiluminescence.

The target in assay [2] is Fem proteins (Apis mellifera). The assay is described as follows: SDS-PAGE under oligomer-forming (very low denaturation) conditions with Western blot; complexation of Fem proteins (fig. S6); the text does not name the method, taken from the experiments on Csd that precede it. A general note: A western blot detects proteins with antibodies after separation by electrophoresis.

In assay [1], “CC^DD, CC fragment with glutamic acid replaced with aspartic acid at two core hydrophilic positions” came in with a reduction of homotrimer formation compared to the WT of 50 to 90%. Turning to Fem proteins (natural protein), in assay [2], the stoichiometry N is 3.
